{
  "source": "patent US20190331690A1",
  "about": "“BIOTHIOL DETECTION COMPOSITION COMPRISING REDOX REGULATION PROTENIN” (INDUSTRY-UNIVERSITY COOPERATION FOUNDATION HANYANG …, priority 2016, published 2019)",
  "key": {"[1]": {"tested_on": "biotin-binding dsDNA [SEQ ID NOs: 1 and 2]", "experiment": "Biolayer interferometry of DNA and OhrR binding on a photosensor", "description": "A binding degree between DNA and a protein on the surface of a photosensor (optical fiber) was measured using an instrument for biolayer interferometry (Blitz, Fortebio, USA).\nBinding buffer, washing buffer: TBS (Tris 20 mM, NaCl 150 mM)\nDNA binding time, OhrR binding time: 2 min\nDNA concentration: 2.5 μM\nOhrR concentration: 50 μM\nCHP concentration: 100 μM\nFirst, biotin-binding dsDNA [SEQ ID NOs: 1 and 2] was dissolved in a TBS buffer at the above-mentioned concentration, bound to a streptavidin-coated photosensor (optical fiber) by flowing the resulting mixture for 120 seconds, and washed with a buffer, and then the OhrR protein was associated with dsDNA binding to the photosensor by additionally flowing the protein dissolved in a TBS buffer at the above-described concentration for 120 seconds (association). After the association was completed, by additionally flowing only a buffer for 120 seconds, the dissociation process of the DNA-OhrR complex was confirmed (dissociation).\nIn biolayer interferometry, when a biomaterial (DNA or OhrR) is bound to the surface of a photosensor, a change in the surface refractive index of the photosensor is necessarily accompanied (the refractive index has a positive correlation with the concentration of a biomaterial), and the principle of converting the change in refractive index to a thickness is applied. […]"}, "DNA": {"biological_target": "DNA", "experiment": "DNA binding strength of OhrR"}, "[2]": {"experiment": "Second order reaction rate between a biothiol and the redox-regulating protein", "type": "biochemical"}, "[3]": {"tested_on": "FAM-bound double strand (ds) DNA [SEQ ID NOs: 1 and 2]", "experiment": "OhrR and target DNA binding by polyacrylamide gel electrophoresis", "details": "dsDNA 200 nM, room temperature 30 minutes, 7% polyacrylamide gel", "description": "Fluorescent probe (FAM)-bound double strand (ds) DNA (200 nM) [SEQ ID NOs: 1 and 2] and OhrR at concentrations shown in FIG. 3 were mixed and reacted at room temperature for 30 minutes, and then a dsDNA band was detected using a fluorescence spectrometer (KIF-300, Korea Lab Tech, Korea) through electrophoresis (25 mA, 30 min) using a polyacrylamide gel (7%). It can be seen that the fluorescent band of dsDNA shifted upward from an OhrR concentration of about 1.6 μM (concentration about 8 fold higher than DNA concentration)."}},
  "data": [
    {"molecule": "OhrR: redox-regulating protein, organic hydroperoxide regulator, cloned in B. subtilis strain, SEQ ID NO: 3, homodimer, 17 kD (protein, listed as Bacillus subtilis, homodimer) MENKFDHMKLENQLCFLLYASSREMTKQYKPLLDKLNITYPQYLALLLLWEHETLTVKKMGEQLYLDSGTLTPMLKRMEQQGLITRKRSEEDERSVLISLTEDGALLKEKAVDIPGTILGLSKQSGEDLKQLKSALYTLLETLHQKN", "values": [
      {"measurement": "binding thickness (dissociation equilibrium of OhrR minus dsDNA binding equilibrium)", "setting": "[1]; OhrR 50 μM, DNA 2.5 μM, without CHP and biothiol", "result": "about 4.3 nm"},
      {"measurement": "binding thickness", "setting": "[1]; in the presence of both CHP and a biothiol", "result": "about 1 nm"},
      {"measurement": "Kd", "setting": "DNA", "result": "≤ 1", "unit": "nM"},
      {"measurement": "second order reaction rate between a biothiol and the redox-regulating protein", "setting": "[2]", "result": "about 10^3 M^−1s^−1"},
      {"measurement": "OhrR concentration from which the fluorescent band of dsDNA shifted upward", "setting": "[3]", "result": "about 1.6 μM"}
    ]}
  ]
}
